What was measured:
FoxP1 FKH domain (human) = test: fluorescence anisotropy; conditions: 200 nM labeled DNA, protein 0-500 nM; 'standard buffer' (composition, salt and pH not in material); dimerization assays at 37 C, DNA-binding temperature not stated; ex 480 nm, em 525 nm
[1] = system: FoxP1 ZIP-lin-FKH (human); test: fluorescence anisotropy; conditions: 200 nM labeled DNA, protein 0-500 nM; 'standard buffer' (composition, salt and pH not in material); dimerization assays at 37 C, DNA-binding temperature not stated; ex 480 nm, em 525 nm
[2] = biological target: FoxP1 ZIP(A356C)-lin-FKH labeled with BODIPY FL (human) (UniProt Q9H334); test: fluorescence polarisation; fluorescence anisotropy; 5 nM BODIPY FL-labeled single-cysteine protein titrated with its unlabeled wild-type construct (0-5000 nM ZIP-lin, 0-200 nM ZIP-lin-FKH), 37 °C; two-state model, monomer-dimer equilibrium; duplicates
[3] = biological target: FoxP1 ZIP-lin-FKH (leucine zipper, linker and Forkhead domain, residues 342-548), unlabeled wild type (human) (UniProt Q9H334); test: SEC; Superdex 75 increase, 20 mM HEPES pH 7.8, 150 mM NaCl; unlabeled protein at 10 µM; molecular weight from a calibration curve with known proteins
[4] = biological target: FoxP1 ZIP(A356C)-lin-FKH labeled with BODIPY FL (human) (UniProt Q9H334); test: fluorescence polarisation; fluorescence anisotropy; 5 nM labeled monomer preincubated with 10 nM unlabeled DNA, then titrated with unlabeled wild-type ZIP-lin-FKH that was previously denatured to ensure the monomeric form; apparent KD; monomer-dimer equilibrium
[5] = biological target: FoxP1 ZIP(A356C)-lin labeled with BODIPY FL (human) (UniProt Q9H334); test: fluorescence polarisation; fluorescence anisotropy; 5 nM BODIPY FL-labeled single-cysteine protein titrated with its unlabeled wild-type construct (0-5000 nM ZIP-lin, 0-200 nM ZIP-lin-FKH), 37 °C; two-state model, monomer-dimer equilibrium; duplicates
[6] = biological target: FoxP1 ZIP-lin (leucine zipper domain with the linker, residues 342-462), unlabeled wild type (human) (UniProt Q9H334); test: SEC; Superdex 75 increase, 20 mM HEPES pH 7.8, 150 mM NaCl; unlabeled protein at 10 µM; molecular weight from a calibration curve with known proteins

## FoxP1 FKH cognate DNA, Alexa488-labeled
FoxP1 FKH domain (human)
  Kd: 176 nM
[1]
  Kd: 170 nM

## FoxP1 ZIP-lin-FKH (leucine zipper, linker and Forkhead domain, residues 342-548), unlabeled wild type (from UniProt Q9H334 342-548) (domain or fragment)
[2]
  Kd: 29 nM
[3]
  stoichiometry N: 2
[4]
  Kd: 55 nM

## FoxP1 ZIP-lin (leucine zipper domain with the linker, residues 342-462), unlabeled wild type (from UniProt Q9H334 342-462) (domain or fragment)
[5]
  Kd: 123 nM
[6]
  stoichiometry N: 2

— article PMC10188207
